doi:10.1101/2022.09.07.507039

Assays:
[1] = target: native Gli123 protein (Mycoplasma mobile); assay: negative-staining EM with single-particle analysis
[2] = target: native Gli123 protein (Mycoplasma mobile); assay: SEC
[3] = target: recombinant Gli123 (Mycoplasma mobile); assay: SEC-SAXS

## native Gli123 protein (natural protein)
[1]
  stoichiometry N: 2
[2]
  stoichiometry N: 2

## recombinant Gli123 (natural protein)
[3]
  stoichiometry N: 2
